Results on 1 substance are retold here after patent publication US20260139001A1.

In the experiment the target is SARS-CoV-2 Spike RBD, Wuhan (SARS-CoV-2) (UniProt P0DTC2).

“Ribosomally constructed Wuhan-NS (VHH72 V104UAG construct translated with NBDxK-tRNACUA)” had a normalized tube fluorescence of 0.58.
